B1: CPEB3 Ribozyme (parent)
chain: GGGGGCCACAGCAGAAGCGUUCACGUCGCGGCCCCUGUCAGAUUCUGGUGAAUCUGCGAAUUCUGCUGU

Variants of: B1
Experiment: self-cleavage, relative activity (ratio to wild type); higher = more cleavage; co-transcriptional

Variant | self-cleavage
GGGGGCCACUGCAGAAGCGUUCACGUCGCGGCCCCUGUCAGAUUCUGGUGAAUCUGCGAAUUCUGCUGU [A10U] | 1
GGGGGCCACUGCAGAAGCGUUCACGUCGCGGCCCCUGUCAGUUUCUGGUGAAUCUGCGAAUUCUGCUGU [A10U A42U] | 0.999
GGGGGCCACUGCAGAAGCGUUCACGUCGCGGCCCCUGUCAGGUUCUGGUGAAUCUGCGAAUUCUGCUGU [A10U A42G] | 0.899
GGGGGCCACGGCAGAAGCGUUCACGUCGCGGCCCCUGUCAGAUUCUGGUGAAUCAGCGAAUUCUGCUGU [A10G U55A] | 0.407
GGGGGCCACGGCAGAAGCGUUCACGUCGCGGCCCCUGUCAGAUUCUGGUGAAUCCGCGAAUUCUGCUGU [A10G U55C] | 0.407
GGGGGCCACGGCAGAAGCGUUCACGUCGCGGCCCCUGUCAGAUACUGGUGAAUCUGCGAAUUCUGCUGU [A10G U44A] | 0.702
GGGGGCCACGGCAGAAGCGUUCACGUCGCGGCCCCUGUCAGAUCCUGGUGAAUCUGCGAAUUCUGCUGU [A10G U44C] | 0.498
GGGGGCCACUGCAGAAGCGUUGACGUCGCGGCCCCUGUCAGAUUCUGGUGAAUCUGCGAAUUCUGCUGU [A10U C22G] | 0.174
GGGGGCCACUGCAGAAGCGUUUACGUCGCGGCCCCUGUCAGAUUCUGGUGAAUCUGCGAAUUCUGCUGU [A10U C22U] | 0.436
GGGGGCCACUGCAGAAGCGUUCAGGUCGCGGCCCCUGUCAGAUUCUGGUGAAUCUGCGAAUUCUGCUGU [A10U C24G] | 0.569
GGGGGCCACUGCAGAAGCGUUCAAGUCGCGGCCCCUGUCAGAUUCUGGUGAAUCUGCGAAUUCUGCUGU [A10U C24A] | 0.796
GGGGGCCACGGCAGAAGCGUUCACGUCGCGGCCCCUGUCAGAUUCUGGUGAAUCUGCCAAUUCUGCUGU [A10G G58C] | 0.888
GGGGGCCACGGCAGAAGCGUUCACGUCGCGGCCCCUGUCAGAUUCUGGUGAAUCUGCAAAUUCUGCUGU [A10G G58A] | 0.969
GGGGGCCACUGCAGAAGCGUUCACGUCGCGGCCCCUGUCUGAUUCUGGUGAAUCUGCGAAUUCUGCUGU [A10U A40U] | 0.911
GGGGGCCACUGCAGAAGCGUUCACGUCGCGGCCCCUGUCCGAUUCUGGUGAAUCUGCGAAUUCUGCUGU [A10U A40C] | 0.516
GGGGGCCACUGCAGAAGCGUUCCCGUCGCGGCCCCUGUCAGAUUCUGGUGAAUCUGCGAAUUCUGCUGU [A10U A23C] | 0.968
GGGGGCCACUGCAGAAGCGUUCUCGUCGCGGCCCCUGUCAGAUUCUGGUGAAUCUGCGAAUUCUGCUGU [A10U A23U] | 1
GGGGGCCACUGCAGAAGCGUUCGCGUCGCGGCCCCUGUCAGAUUCUGGUGAAUCUGCGAAUUCUGCUGU [A10U A23G] | 0.983
GGGGGCCACGGCAGAAGCGUUCACGUCGCGGCCCCUGUCAGAUUCUGGUGAAUCUGCGAAUUCAGCUGU [A10G U64A] | 0.33
GGGGGCCACGGCAGAAGCGUUCACGUCGCGGCCCCUGUCAGAUUCUGGUGAAUCUGCGAAUUCCGCUGU [A10G U64C] | 0.406
GGGGGCCACUGCAGAAGCGUUCACGUCGCGGCCCCUGUCAGAUUCUGGUGCAUCUGCGAAUUCUGCUGU [A10U A51C] | 0.962
GGGGGCCACGGCAGAAGCGUUCACGUCGCGUCCCCUGUCAGAUUCUGGUGAAUCUGCGAAUUCUGCUGU [A10G G31U] | 0.868
GGGGGCCACGGCAGAAGCGUUCACGUCGCGACCCCUGUCAGAUUCUGGUGAAUCUGCGAAUUCUGCUGU [A10G G31A] | 0.953
GGGGGCCACGGCAGAAGCGUUCACGUCGCGGCCCCUGUCAUAUUCUGGUGAAUCUGCGAAUUCUGCUGU [A10G G41U] | 0.466
GGGGGCCACGGCAGAAGCGUUCACGUCGCGGCCCCUGUCAGAUUCUGGAGAAUCUGCGAAUUCUGCUGU [A10G U49A] | 0.932
GGGGGCCACGGCAGAAGCGUUCACGUCGCGGCCCCUGUCAGAUUCUGGCGAAUCUGCGAAUUCUGCUGU [A10G U49C] | 0.99

Variant | self-cleavage
GGGGGCCACGGCAGAAGCGUUCACGUCGCGGCCCCUGUCAGAUUCUGGGGAAUCUGCGAAUUCUGCUGU [A10G U49G] | 0.907
GGGGGCCACGGCAGAAGCGUUCACGUCGCGGCCCCUGUCAGAUUCUGUUGAAUCUGCGAAUUCUGCUGU [A10G G48U] | 1
GGGGGCCACGGCAGAAGCGUUCACGUCGCGGCCCCUGUCAGAUUCUGCUGAAUCUGCGAAUUCUGCUGU [A10G G48C] | 0.968
GGGGGCCACGGCAGAAGCGUUCACGUCGCGGCCCCUGUCAGAUUCUGAUGAAUCUGCGAAUUCUGCUGU [A10G G48A] | 0.898
GGGGGCCACUGCAGAAGGGUUCACGUCGCGGCCCCUGUCAGAUUCUGGUGAAUCUGCGAAUUCUGCUGU [A10U C18G] | 0.182
GGGGGCCACUGCAGAAGCGUUCACGUCGCGGCCCCUGUCAGAUUCUGGUGAAUCUGCGACUUCUGCUGU [A10U A60C] | 0.384
GGGGGCCACUGCAGAAGCGUUCACGUCGCGGCCCCUGUCAGAUUCUGGUGAAUCUGCGAUUUCUGCUGU [A10U A60U] | 0.58
GGGGGCCACUGCAGAAGCGUUCACGUCGCGGCCCCUGUCAGAUUCUGGUGACUCUGCGAAUUCUGCUGU [A10U A52C] | 1
GGGGGCCACUGCAGAAGCGUUCACGUCGCGGCCCCUGUCAGAUUCUGGUGAGUCUGCGAAUUCUGCUGU [A10U A52G] | 1.03
GGGGGCCACGGCAGAAGCGUUCACGUCGCGGCCCCUGUCAGAUUCUGGUGAAGCUGCGAAUUCUGCUGU [A10G U53G] | 0.646
GGGGGCCACGGCAGAAGCGUUCACGUCGCGGCCCCUGUCAGAUUCUGGUCAAUCUGCGAAUUCUGCUGU [A10G G50C] | 0.818
GGGGGCCACGGCAGAAGCGUUCACGUCGCGGCCCCUGUCAGAUUCUGGUUAAUCUGCGAAUUCUGCUGU [A10G G50U] | 0.87
GGGGGCCACGGCAGAAGCGUUCACGUCGCGGCCCCUGUCAGAUUCUCGUGAAUCUGCGAAUUCUGCUGU [A10G G47C] | 0.927
GGGGGCCACGGCAGAAGCGUUCACGUCGCGGCCCCUGUCAGAUUCUAGUGAAUCUGCGAAUUCUGCUGU [A10G G47A] | 0.986
GGGGGCCACGGCAGAAGCGUUCACGUCGCGGCCCCUGUCAGAUUCUGGUGAAUCUGCGAAUUCUGCUUU [A10G G68U] | 0.917
GGGGGCCACGGCAGAAGCGUUCACGUCGCGGCCCCUGUCAGAUUCUGGUGAAUCUGCGAAUUCUGCUCU [A10G G68C] | 0.941
GGGGGCCACGGCAGAAGCGUUCACGUCGCGGCCCCUGUCAGAUUCUGGUGAAUCUGCGAAUUCUGCUAU [A10G G68A] | 0.943
GGGGGCCACUGCAGACGCGUUCACGUCGCGGCCCCUGUCAGAUUCUGGUGAAUCUGCGAAUUCUGCUGU [A10U A16C] | 0.281
GGGGGCCACGGCAGAAGCGUUCACGUCGCGGCCCCUGUCAGAUUCUGGUGAAUCUUCGAAUUCUGCUGU [A10G G56U] | 0.567
GGGGGCCACGGCAGAAGCGUUCACGUCGCGGCCCCUGUCAGAUUCUGGUGAAUCUCCGAAUUCUGCUGU [A10G G56C] | 0.473
GGGGGCCACGGCAGAAGCGUUCACGUCGCGGCCCCUGUCAGAUUCUGGUGAAUCUACGAAUUCUGCUGU [A10G G56A] | 0.784
GGGGGCCACGGCAGAAGCGUUCACGUCGCGGCCCCUCUCAGAUUCUGGUGAAUCUGCGAAUUCUGCUGU [A10G G37C] | 0.175
GGGGGCCACGGCAGAAGCGUUCACGUCGCGGCCCCUGUCAGAUUCUGGUGAAUCUGCGAAUACUGCUGU [A10G U62A] | 0.578
GGGGGCCACGGCAGAAGCGUUCACGUCGCGGCCCCUGUCAGAUUCUGGUGAAUCUGCGAAUGCUGCUGU [A10G U62G] | 0.448
GGGGGCCACGGCAGAAGCGUUCACGUCGCGGCCCCUGUCAGAGUCUGGUGAAUCUGCGAAUUCUGCUGU [A10G U43G] | 0.344
GGGGGCCACGGCAGAAGCGUUCACGUCGCGGCCCCUGUCAGAAUCUGGUGAAUCUGCGAAUUCUGCUGU [A10G U43A] | 0.455

Variant | self-cleavage
GGGGGCCACGGCAGAAGCGUUCACGUCGCGGCCCCUGUCAGACUCUGGUGAAUCUGCGAAUUCUGCUGU [A10G U43C] | 0.651
GGGGGCCACGGCAGAAGCGUUCACGUCGCGGCCCCUGUCAGAUUCUGGUGAAUCUGCGAAUUCUCCUGU [A10G G65C] | 0.288
GGGGGCCACGGCAGAAGCGUUCACGUCGCGGCCCCUGUCAGAUUCUGGUGAAUCUGCGAAGUCUGCUGU [A10G U61G] | 0.468
GGGGGCCACGGCAGAAGCGUUCACGUCGCGGCCCCUGUCAGAUUCUGGUGAAUCUGCGAACUCUGCUGU [A10G U61C] | 0.291
GGGGGCCACGGCAGAAGCGUUCACGUCGCGGCCCCUGUCAGAUUCCGGUGAAUCUGCGAAUUCUGCUGU [A10G U46C] | 0.907
GGGGGCCACGGCAGAAGCGUUCACGUCGCGGCCCCUGUCAGAUUCGGGUGAAUCUGCGAAUUCUGCUGU [A10G U46G] | 0.901
GGGGGCCACUGCCGAAGCGUUCACGUCGCGGCCCCUGUCAGAUUCUGGUGAAUCUGCGAAUUCUGCUGU [A10U A13C] | 0.808
GGGGGCCACUGCAGAAGCGUUCACGUCGCGGCCCCUGUCAGAUUCUGGUGAAUCUGCGUAUUCUGCUGU [A10U A59U] | 0.879
GGGGGCCACUGCAGAAGCGUUCACGUCGCGGCCCCUGUCAGAUUCUGGUGAAUCUGCGCAUUCUGCUGU [A10U A59C] | 0.778
GGGGGCCACGGCAGAAGCGUGCACGUCGCGGCCCCUGUCAGAUUCUGGUGAAUCUGCGAAUUCUGCUGU [A10G U21G] | 0.39
GGGGGCCACGGCAGAAGCGUACACGUCGCGGCCCCUGUCAGAUUCUGGUGAAUCUGCGAAUUCUGCUGU [A10G U21A] | 0.83
GGGGGCCACGGCAGAAGCGUCCACGUCGCGGCCCCUGUCAGAUUCUGGUGAAUCUGCGAAUUCUGCUGU [A10G U21C] | 0.619
GGGGGCCACGGCAGAAGCGUUCACGUCGCGGCCCCUGUCAGAUUCUGGUGAAUCUGCGAAUUCUGCAGU [A10G U67A] | 0.847
GGGGGCCACGGCAGAAGCGUUCACGUCGCGGCCCCUGUCAGAUUCUGGUGAAUCUGCGAAUUCUGCGGU [A10G U67G] | 0.757
GGGGGCCACGGCAGAAGCGGUCACGUCGCGGCCCCUGUCAGAUUCUGGUGAAUCUGCGAAUUCUGCUGU [A10G U20G] | 0.135
GGGGGCCACGGCAGAAGCGCUCACGUCGCGGCCCCUGUCAGAUUCUGGUGAAUCUGCGAAUUCUGCUGU [A10G U20C] | 0.115
GGGGGCCACUGCAGGAGCGUUCACGUCGCGGCCCCUGUCAGAUUCUGGUGAAUCUGCGAAUUCUGCUGU [A10U A15G] | 0.999
GGGGGCCACUGCAGUAGCGUUCACGUCGCGGCCCCUGUCAGAUUCUGGUGAAUCUGCGAAUUCUGCUGU [A10U A15U] | 0.772
GGGGGCCACUGGAGAAGCGUUCACGUCGCGGCCCCUGUCAGAUUCUGGUGAAUCUGCGAAUUCUGCUGU [A10U C12G] | 0.859
GGGGGCCACGGCAGAAGCGUUCACGUCGCCGCCCCUGUCAGAUUCUGGUGAAUCUGCGAAUUCUGCUGU [A10G G30C] | 0.94
GGGGGCCACGGCAGAAGCGUUCACGUCGCGGCCCCCGUCAGAUUCUGGUGAAUCUGCGAAUUCUGCUGU [A10G U36C] | 0.761
GGGGGCCACGGCAGAAGCGUUCACGUCGCGGCCCCAGUCAGAUUCUGGUGAAUCUGCGAAUUCUGCUGU [A10G U36A] | 0.117
GGGGGCCACGGCAGAAGCGUUCACGUCGCGGCCCCGGUCAGAUUCUGGUGAAUCUGCGAAUUCUGCUGU [A10G U36G] | 0.155
GGGGGCCACGGCAGAAGCGUUCACGUCGCGGCCCCUGUCAGAUUCUGGUGAAUCUGCGAAUUCUGCUGA [A10G U69A] | 0.981
GGGGGCCACGGCAGAAGCGUUCACGUCGCGGCCCCUGUCAGAUUCUGGUGAAUCUGCGAAUUCUGCUGC [A10G U69C] | 1.06
GGGGGCCACGGCAGAAGCGUUCACGUCGCGGCCCCUGUCAGAUUCUGGUGAAUCUGCGAAUUCUGCUGG [A10G U69G] | 0.978

From the RNAGym collection of RNA variant scans (doi:10.7554/elife.80360)
